Results published in the supplement of paper PMC11780869.

Test system: Bacillus subtilis
Assay: cleaved RNA product abundance (RNA/gDNA barcode ratio) relative to median wild-type variant (ratio to wild type); higher = more accumulation of the downstream cleavage product
Method in brief: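 The B. subtilis chromosome carried reporter mRNAs, truncated aprE or tetM, containing barcoded RNase Y cleavage-site windows mutagenized using oligos with a 9% error rate. After growth in LB at 37°C from OD600 0.0003 to 0.3, cleaved RNA was gel-selected, reverse transcribed and barcode-sequenced next to genomic DNA barcodes, with UMI collapsing. Each construct's RNA:gDNA barcode ratio was scaled to the median construct with the unmutated site. That scaled ratio is reported as cleaved product abundance.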

[1] = experiment (reporter, strain, medium): exp 8a: truncated aprE reporter, strain BJT201 with 2% xylose (RNase J1 expressed), cleavage site: glnRA (positions -5 to +31 mutated)
[2] = experiment (reporter, strain, medium): exp 2b: truncated aprE reporter, strain BJT200, cleavage site: cggR-gapA (positions -7 to +36 mutated)
[3] = experiment (reporter, strain, medium): exp 4a: truncated aprE reporter, strain BJT201 with 2% xylose (RNase J1 expressed), cleavage site: cggR-gapA (positions -7 to +36 mutated)
[4] = experiment (reporter, strain, medium): exp 6: tetM reporter, strain 168, cleavage site: cggR-gapA (positions -7 to +36 mutated)

Sequence | cleaved RNA product abundance [2] | cleaved RNA product abundance [3] | further results
CGACATGTCCCGCTTCTTTCATTAATACGTTAGCAACTGTTTTGCTATATCCATTTACCTTTTAAGAGGAGGAAT | – | – | cleaved RNA product abundance [1]: 0.193
ACAGACGAAGGAGCCGCAAAGAAGTTATTAAGGGATTAATAATCTCTCAATATAAATATCTCTCACTTATTTAAA | 0.716 | – | –
ACAGACGAAGGAGCCGCAAAGGAGTTATTAAGGGATGAATAATCCCTGAATATAAATATCTCTCACTTATTTAAA | – | 0.361 | –
ACAGACGAAGGAGCCGCAAAGAAGTAATTCAGGGATGAATAATCCCTCAATATAAATATCTCTCACTTATTTAAA | – | 0.325 | –
ACAGACGAAGGAGCCGCAAAGTAGTTATTAAGGGATGAATAATCCCTCAATCTAAATATCTCTCACTTATTTAAA | – | 0.0783 | –
ACAGACGAAGGAGCCGCAAATAAGTTATTAAGGGATGAATAGTCCCTCAATATAAATATCTCTCACTTATTTAAA | 0.852 | 0.887 | –
ACAGACGAAGGAGCCGCAAAGAAGTTATTAAGGAATGAATAATCCCTCAATAAAAATATCTCTCACTTATTTAAA | 0.0974 | 0.0766 | –
CGACATGTCCCGCTTCTTTCATTAATCCGTTAGCAACTGTTTTGCTTTATAGATTTACCTTTTAAGAGGAGGAAT | – | – | cleaved RNA product abundance [1]: 0.649
ACAGACGAAGGAGCCGCAAATAAGTTATTAAGGGATGAATAATCCCTCAATATAAATTTCTCTCACTTATTTAAA | – | 0.862 | –
CGACATGTCCCGCTTCTTTCATTAATCCGTTAGCAACTGGTTTGATATATACATTTACCTTTTAAGAGGAGGAAT | – | – | cleaved RNA product abundance [1]: 0.485
ACAGACGAAGGAGCCGCAAAGAAGTGATTACGGGATGAATAATCCCTCAATATAAATATCTCTCACTTATTTAAA | – | 0.396 | –
CGACATGTCCCGCTTCTTTCATTAATCCGTTTGCAACTGATTTGCTATATACATTTACCTTTTAAGAGGAGGAAT | – | – | cleaved RNA product abundance [1]: 0.51
ACAGACGAAGGAGCCGCAAAGAAGTTATTAAAGGATGAAGAATCCCTCAATATAAATATCTCTCACTTATTTAAA | – | 0.232 | –
ACAGACGAAGGAGCCGCAAAGAAGTCATTAAGGAATGAATAATCCCTCAATATAAATATCTCTCACTTATTTAAA | 0.0849 | 0.139 | –
ACAGACGAAGGAGCCGCAAAGAGGTTATTAAGGGATGAATAATCCCTCAATATAAATATCTCTCACTTATTTAAA | 0.814 | 0.754 | cleaved RNA product abundance [4]: 0.737
CGACATGTCCCGCTTCTTTCATTAATCCGTTAGCAACTGTTTCGCTATACACATTTACCTTTTAAGAGGAGGAAT | – | – | cleaved RNA product abundance [1]: 0.222
ACAGACGAAGGAGCCGCAAAGAAGTTATTAAGGTACGAATAATCCCTCAATATAAATATCTCTCACTTATTTAAA | 0.0971 | 0.106 | –
ACAGACGAAGGAGCCGCAAAGAAGTTATTAAAGGATGAGTAATCCCTCAATATAAATATCTCTCACTTATTTAAA | – | 0.202 | –
ACAGACGAAGGAGCCGCATAGAAATTATTAAGGGATGAATAATCCCTCAATATAAATATCTCTCACTTATTTAAA | 0.834 | 0.574 | –
CGACATGTCCCGCTTCTTTCATTAATCCGTTAGCAACTGTTTTGCTATAAAAATTTACCTTTTAAGAGGAGGAAT | – | – | cleaved RNA product abundance [1]: 0.405
CGACATGTCCCGCTTCTTTCATTAATCCGTTAGCAACTGTTTTTCTATATTCATTTACCTTTTAAGAGGAGGAAT | – | – | cleaved RNA product abundance [1]: 0.189
ACAGACGAAGGAGCCGCAAAGAAGTTATTAAGGGATGAATAATCACACAATATAAATATCTCTCACTTATTTAAA | 0.114 | 0.142 | –
ACAGACGAAGGAGCCGCAAATAAGTTATTAAGGGATGAATAATCGCTCAATATAAATATCTCTCACTTATTTAAA | – | 0.121 | –

Sequence | cleaved RNA product abundance [2] | cleaved RNA product abundance [3] | further results
ACAGACGAAGGAGCCGCAAAGAAGTTATTAAGGGAAGAATAATCCCTCTATATAAATATCTCTCACTTATTTAAA | – | 0.239 | –
ACAGACGAAGGAGCCGCAAAGAAGTTATTATGGGATGAATAATCCCTCAATATAAATATCTCTCACTTATTTAAA | 0.302 | 0.407 | –
ACAGACGAAGGAGCCGCAAAAAAGTTATTAAGGGTTGAATAATCCCTCAATATAAATATCTCTCACTTATTTAAA | 0.373 | 0.512 | –
ACAGACGAAGGAGCCGCAAAGAAGTTATTAAGGGATGAATACTCCCTCAATTTAAATATCTCTCACTTATTTAAA | – | 0.167 | –
ACAGACGAAGGAGCCGCAAAGAAGTTCTTAAGGGATGAATAATCCCTCAATATAAATAACTCTCACTTATTTAAA | – | 0.162 | –
ACAGACGAAGGAGCCGCTAAGAAGATATTAAGGGATGAATAATCCCTCAATATAAATATCTCTCACTTATTTAAA | 0.625 | – | –
ACAGACGAAGGAGCCGCAAATAAGTAATTAAGGGATGAATAATCCCTCAATATAAATATCTCTCACTTATTTAAA | 0.246 | 0.339 | –
ACAGACGAAGGAGCCGCAAAGAAGTTATTAAGGGAAGAATAATCCCTCACTATAAATATCTCTCACTTATTTAAA | 0.187 | – | –
CGACATGTCCCGCTTCTTTCATTAATCTGTTAGCAACTGTTTTGCTATATACTTTTACCTTTTAAGAGGAGGAAT | – | – | cleaved RNA product abundance [1]: 0.728
ACAGACGAAGGAGCCGCAAAGAAGTTATTAAGGGATGAATAATCCCTCAATATAAATACCTCTCACTTATTTAAA | 0.69 | 0.56 | cleaved RNA product abundance [4]: 0.593
CGACATGTCCCGCTTCTTTCATTAATCCGTAAGCAACTGTTTTGCTATATACATTTACCATTTAAGAGGAGGAAT | – | – | cleaved RNA product abundance [1]: 0.381
ACAGACGAAGGAGCCGCAAATAAGTTATTAAGGGATGAATAATCCCTCAAGATAAATATCTCTCACTTATTTAAA | – | 0.373 | –
ACAGACGAAGGAGCCGCAAAGAAGTTATTAAGAGATGAATACTCCCTCAATATAAATATCTCTCACTTATTTAAA | – | 0.0945 | –
CGACATGTCCCGCTTCTTTCATTAATCCGTTAACAACTGTTTTGCGATATACATTTACCTTTTAAGAGGAGGAAT | – | – | cleaved RNA product abundance [1]: 0.215
ACAGACGAAGGAGCCGCAAAGAAGTTAATAAGGGATGAATAATCCCTGAATATAAATATCTCTCACTTATTTAAA | – | 0.533 | –
CGACATGTCCCGCTTCTTTCATTAATCCGTTAGCAACTGTTTTGCCATATACATTTACCGTTTAAGAGGAGGAAT | – | – | cleaved RNA product abundance [1]: 0.539
ACAGACGAAGGAGCCGCAATGAAGTTATTAAGGGATGAATAATGCCTCAATATAAATATCTCTCACTTATTTAAA | 0.122 | – | –
ACAGACGAAGGAGCCGCAAAGAAGTTATTAAGGGATGAATAAACACTCAATATAAATATCTCTCACTTATTTAAA | 0.0698 | 0.172 | –
ACAGACGAAGGAGCCGCAAAGAAGTTATTAAGGGATGAATATTGCCTCAATATAAATATCTCTCACTTATTTAAA | – | 0.107 | –
CGACATGTCCCGCTTCTTTCATTAATCTGTTAGCAACTGTTTTGCTATATACATATACCTTTTAAGAGGAGGAAT | – | – | cleaved RNA product abundance [1]: 0.829
ACAGACGAAGGAGCCGCAAAGAAGTTATTAAGGGATAAATGATCCCTCAATATAAATATCTCTCACTTATTTAAA | – | 0.455 | –
CGACATGTCCCGCTTCTTTCATTAATTCGTTTGCAACTGTTTTGCTATATACATTTACCTTTTAAGAGGAGGAAT | – | – | cleaved RNA product abundance [1]: 0.815
ACAGACGAAGGAGCCGCAAAGAAGTTATTAAGGGATGAATAATCCCAAAATATAAATATCTCTCACTTATTTAAA | 0.306 | 0.31 | –
